This is an account of results in patent US20230104769A1 (MABWELL SHANGHAI BIOSCIENCE, published 2023).

For experiment [1], the target named is T1, human PD-1-hFc (NCBI accession No.: NP_005009.2, 21aa-167aa, Lot: 20180329) (human, UniProt Q15116 21-167).
T1 construct: range 21-167; not shown: human Fc (hFc)
In words: competition ELISA, plate-bound PD-1-hFc, competitor PD-L2-hFc-Biotin 2 µg/mL; competitor PD-L2. On the procedure:
Afterwards, HRP-streptavidin (Cat: 52438, Sigma) which was diluted at a dilution of 1:2000 was added to the plate for reacting for 30 min. Later, TMB substrate was added to develop color for 15 min, which was followed by the addition of 2 M HCl to terminate the reaction and then the plate was detected by a microplate reader. With 630 nm as reference wavelength, the absorbance at 450 nm (A450 nm-630 nm) of each well in the plate was read and recorded.

The target in experiment [2] is T2, N74A.
T2 construct: also called full-length human PD-1 N74A expressed on HEK293 cells; PD-1-mut N74A; not shown: EGFP of the expression vector, if it is fused to PD-1
The experiment in a line: flow cytometry on transfected HEK293 cells, antibody 2 µg/ml, goat anti-human IgG(Fc)-Cy5; no negative-control bar is drawn. The method, then: (§1) The mutants obtained were inserted into an expression vector carrying EGFP to construct five plasmids expressing full-length human PD-1 (WT, N49A, N58A., N116A, N74A). […] 2 days after the transfection, the cells were collected to a 96-well plate, centrifuged at 1500 rpm for 2 minutes, and the supernatants in the wells were discarded. […] The working concentration of the primary antibodies was 2 μg/ml, and cells without primary antibodies added were used as negative controls. The mixtures obtained were centrifuged at 1500 rpm for 2 minutes, and supernatants were discarded. The cells in each well were resuspended by adding 200 μl PBS and the suspensions obtained were then centrifuged at 1500 rpm for 2 minutes, then supernatants were discarded. Later, the obtained cells were incubated with 200 μl goat anti-human IgG(Fc)-Cy5 (Cat: 12136, Lot: 017M4800V, Sigma) diluted with 5% BSA added into each well for 1 h at room temperature, then centrifuged at 1500 rpm for 2 minutes, and supernatants were discarded. The cells were resuspended by adding 200 μl PBS and the suspensions obtained were then centrifuged at 1500 rpm for 2 minutes, then supernatants were discarded. The cells again were resuspended by adding 200 μl PBS thereto and detected by flow cytometry (B49007AD, SNAW31211).
(In general: Flow cytometry measures light scatter and fluorescence of single cells or particles in a stream.)

Experiment [3] concerns the target T3, N116A.
T3 construct: also called full-length human PD-1 N116A expressed on HEK293 cells; PD-1-mut N116A; not shown: EGFP of the expression vector, if it is fused to PD-1
Described as above. The method, then:
as §1

The target in experiment [4] is T4, N49A.
T4 construct: also called full-length human PD-1 N49A expressed on HEK293 cells; PD-1-mut N49A; not shown: EGFP of the expression vector, if it is fused to PD-1
Described as above. The method, then: as §1

Experiment [5] addresses T5, recombinant human PD-1 protein (NCBI accession No.: NP_005009.2, 21aa-167aa) (human, UniProt Q15116 21-167).
T5 construct: range 21-167; also called recombinant human PD-1 extracellular domain protein; PD-1-ECD
In words: ELISA, biotinylated h317 on plate-bound PD-1. The method, then: (§2) The plates were washed three times with PBS subsequently, and 5% BSA-PBS was added for blocking for 60 min at 37° C. […] Again, the plates were washed four times with PBST, then HRP-streptavidin (Cat: 019-035-098, Jackson immuno Research) with a dilution of 1:100 was added for a 30 min incubation at 37° C. Once again, the plates were washed four times with PBST, and TMB substrate was added for developing color through incubating for 10 min at 37° C., then the reaction was terminated by adding 2 M HCl. With 630 nm as reference wavelength, the absorbance at a wavelength of 450 nm (A450 nm-630 nm) of each well in the plates was read and recorded.

Experiment [6] deals with T6, cynomolgus monkey PD-1 (Cat: 90311-C08H, Sino Biological Inc.) (cynomolgus monkey, UniProt B0LAJ3 25-170).
T6 construct: Bought recombinant protein; not shown: The vendor's tag
In words: ELISA, biotinylated h317 on plate-bound PD-1. The method, then:
as §2
On the technique in general: An ELISA detects its analyte on a solid surface through an enzyme-linked reagent.

The target of experiment [7] is T7, mouse PD-1 (Cat: 50124-M08H, Sino Biological Inc.) (mouse, UniProt Q02242 25-167).
T7 construct: Bought recombinant protein; also called recombinant mouse PD-1
T7 sequence (looked up): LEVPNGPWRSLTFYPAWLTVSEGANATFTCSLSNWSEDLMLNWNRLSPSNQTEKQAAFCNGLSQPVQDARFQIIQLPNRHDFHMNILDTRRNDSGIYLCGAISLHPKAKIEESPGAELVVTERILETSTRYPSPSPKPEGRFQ
The experiment in a line: ELISA, plate coated with the PD-1 protein at 1 µg/mL, biotinylated h317, HRP-streptavidin. On the procedure:
as §2

Experiment [8] addresses CD28 (Cat: 11524-HCCH, Sino Biological Inc.) (human, UniProt P10747 19-152). The experiment in a line: ELISA, plate coated with the protein at 1 µg/mL, biotinylated h317, HRP-streptavidin. On the procedure: as §2, with “Immuno” for “immuno”
Experiment [9] deals with CTLA4 (Cat: 11159-H08H, Sino Biological Inc.) (human, UniProt P16410 36-162). The experiment is described as above. The method, then: as §2, with “Immuno” for “immuno”
The target of experiment [10] is T5, recombinant human PD-1 protein (NCBI …). The experiment is described as above. On the procedure:
as §2, with “Immuno” for “immuno”

T5 sequence (Q15116 21-167 limits assumed, form in doubt): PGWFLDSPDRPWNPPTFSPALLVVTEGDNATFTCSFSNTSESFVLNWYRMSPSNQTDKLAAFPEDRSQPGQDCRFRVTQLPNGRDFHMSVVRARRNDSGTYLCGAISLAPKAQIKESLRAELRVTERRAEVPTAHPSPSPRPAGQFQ
T6 sequence (B0LAJ3 entry or part of it C08H C08H limits assumed): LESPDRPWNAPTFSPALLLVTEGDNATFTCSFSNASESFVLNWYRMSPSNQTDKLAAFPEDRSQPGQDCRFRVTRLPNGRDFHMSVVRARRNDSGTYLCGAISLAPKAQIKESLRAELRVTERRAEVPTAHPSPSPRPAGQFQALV
T2 sequence (chain, as listed by the source N74A N74A limits assumed): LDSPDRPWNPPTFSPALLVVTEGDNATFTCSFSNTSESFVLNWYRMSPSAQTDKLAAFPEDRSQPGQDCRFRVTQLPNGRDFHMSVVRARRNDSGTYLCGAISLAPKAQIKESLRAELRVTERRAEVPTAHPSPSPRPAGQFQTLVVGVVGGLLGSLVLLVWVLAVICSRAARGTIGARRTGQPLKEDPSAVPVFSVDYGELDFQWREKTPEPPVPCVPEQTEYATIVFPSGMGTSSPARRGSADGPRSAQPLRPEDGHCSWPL
Sequence of CTLA4 (Cat: 11159-H08H, Sino Biological Inc.) (P16410 36-162 limits assumed): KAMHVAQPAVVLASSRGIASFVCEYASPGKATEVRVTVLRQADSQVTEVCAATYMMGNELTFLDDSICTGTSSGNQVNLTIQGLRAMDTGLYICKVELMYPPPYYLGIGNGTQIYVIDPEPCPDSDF
T3 sequence (chain, as listed by the source N116A N116A limits assumed): as the sequence (chain, as listed by the source N74A N74A limits assumed) above, with A50N, N92A counted along it
T1 sequence (Q15116 21-167 limits assumed, form in doubt): as the sequence (Q15116 21-167 limits assumed, form in doubt) above
T4 sequence (chain, as listed by the source N49A N49A limits assumed): as the sequence (chain, as listed by the source N74A N74A limits assumed) above, with N25A, A50N counted along it

B1: h317 (humanized anti-human PD-1 antibody) (antibody, V domains shown)
VH: EVQLVESGGGLVKPGGSLRLSCAASGFTFSSYDMSWVRQAPGKGLEWVATISGGGSYTYYPDSVKGRFTISRDNAKNSLYLQMNSLRAEDTAVYYCASPDSSGVAYWGQGTLVTVSS
VL: DIVMTQSPLSLPVTPGEPASITCKASQDVETVVAWYLQKPGQSPRLLIYWASTRHTGVPDRFSGSGSGTDFTLKISRVEAEDVGVYYCQQYSRYPWTFGQGTKL
notes: also called h317-biotin; biotinylated h317
The term IC50 denotes the concentration that inhibits the measured activity by half. What is called EC50 is the concentration giving half of the maximal effect. Usually EC50 (read off the curve) stands for the concentration giving half of the maximal effect. In the case of B1, the IC50 in experiment [1] worked out at 1.2 nM. Moreover, the binding result in experiment [2] is listed as “binds”; in experiment [3], “binds”; in [4] it was “binds”; in [7] it was “no binding (tested: 1 nM (log(nM) 0 on the axis))”; in [8], “no binding (tested: 1 nM (log(nM) 0 on the axis))”; in experiment [9] it was “no binding (tested: 1 nM (log(nM) 0 on the axis))”. Moreover, the EC50 came out at 0.0047 nM in experiment [5] and 0.0182 nM in [6]. Further, the “EC50 (read off the curve)” value in experiment [10] was around 0.001 nM.
